According to patent publication US11407840B2, “Antibodies to M(H)DM2/4 and their use in diagnosing and treating cancer” (NomoCan Pharmaceuticals LLC, priority 2017, dated 2022):

Assays:
[1] = test system: plasma membrane M(H)DM2/4; assay: Plasma membrane M(H)DM2/4 after chemotherapeutic agents in vitro; assay type: cell-based; settings: data not shown
[2] = test system: human pancreatic cancer MIA PaCa-2 cells; assay: Cell-ELISA, intact cells; assay type: binding
Method: (§1) Cell-ELISA Methodology: 8,000-10,000 cells/well of a 96-well microplate were grown overnight. The next day, unbound cells were washed off with sterile 1× PBS. The cells in each well were fixed with freshly prepared 4% buffered paraformaldehyde (pH 7.2) for 1 hour followed by 3 washes with 1× PBS. The wells were then blocked with 5% BSA in PBS (100 ? /well) for 2 hours at room temperature. Microplate wells were then washed 5 times with 300 ? of ice cold 1× PBS. MAbs NMC-103, NMC-204 or NMC-303 at 1 μg/mL in 1% BSA/PBS were then incubated with various cancer or normal untransformed cells for 2 hours at room temperature. Wells were then washed with 300 ? of ice-cold 1× PBS for 5 times and corresponding secondary antibody HRP-GaM F(ab′)2 diluted 1:2500 or 1:5000 in PBS with 1% BSA were added at 100 ? /well for 1 hour at room temperature followed by washing 5 times with 300 ? of ice-cold 1× PBS. TMB Substrate Solution (1-StepTM Ultra TMB-ELISA, ThermoFisher, Cat. No. 34028) was then added at 50 ? ? to each microplate well and incubated at room temperature for 30 minutes. The reaction was stopped by addition of 50 μL, of stop solution (ThermoFisher, Cat. No. SSO4) to each well and absorbance of each well was measured at OD450 nm. The absorbance value of each experimental well was corrected for the absorbance value obtained from wells treated with isotype-identical mAbs included in each experiment. The results are thus expressed as “relative binding”.

[3] = test system: human, murine, rabbit protein; design: key: H—binds to human protein; M—binds to murine protein; R—binds to rabbit protein; settings: Table 10; cited from earlier work
[4] = molecular target: NMC-P3 peptide (SEQ ID NO:3), amino acids 475-491 of HDM2 (Homo sapiens, UniProt Q00987); assay: Peptide-ELISA, NMC-P3 peptide; assay type: binding; settings: 5 μg/ml peptide dried on plate; OD 450 nm
Method: Peptide-ELISA Methodology: 5 μg/ml of NMC-P1, NMC-P2 or NMC-P3 peptide antigen was dried onto a 96-well ELISA plate overnight. Plates were then blocked with 5% BSA in 1× phosphate-buffered saline (PBS) (100 ? /well) for 2 hours at room temperature. Microplate wells were then washed 5 times with 300 ? of ice cold 1× PBS. Appropriate dilutions of monoclonal antibodies NMC-103, NMC-204 or NMC-303 in 1% bovine serum albumin (BSA) in PBS solution were then incubated with their corresponding peptides (NMC-P1, NMC-P2 or NMC-P3, respectively) at room temperature. After 2 hours, wells were washed 5 times with 300 ? ? ice-cold PBS/well and 100 ? secondary antibody (HRP-labeled Goat anti-Mouse F(ab′)2 H&L cross-adsorbed secondary antibody (HRP-GaM F(ab′)2), ThermoFisher, Cat. No. A24524) diluted 1:2500 to 1:5000 in PBS-1% BSA solution were added and the incubation continued at room temperature. After 1 hour, the wells were washed again 5 times with 200 ? of ice-cold PBS and 50 μiL of the TMB Substrate Solution (1-StepTM Ultra TMB-ELISA, ThermoFisher, Cat. No. 34028) were added to each well and color was allowed to develop for 30 minutes at room temperature. The reaction was stopped by addition of 50 μ ? ? of stop solution (ThermoFisher, Cat. No. SSO4) to each well and absorbance of each well was read immediately for optical density (OD) at 450 nm.

[5] = test system: human breast cancer MCF-7 cells; assay: Cell-ELISA, intact cells; assay type: binding; settings: mAb 1 μg/mL, FIGS. 3-5
Method: as §1

[6] = molecular target: T1, recombinant full-length HDM2 protein (GST tagged) (Homo sapiens, UniProt Q00987); assay: Western blot (immunoblot); assay type: binding; settings: 1 μg/well protein; band at approximately 83 kD; FIG. 2
T1 construct: reacted with the recombinant full-length HDM2 protein; purchased Abcam ab188727
Method: Western Blot: As for immunoblots, 1 μg/well of recombinant FIDM2 protein (GST tagged, Abeam, Cat. No. ab188727) was separated on 8-16% sodium dodecyl sulfate (SDS) polyacrylamide gel and proteins were then transferred to polyvinylidene difluoride (PVDF) membrane. The membrane was blocked with 5% milk followed by incubation with monoclonal antibody NMC-103, NMC-204 or NMC-303 at 1 μg/πι ? in 1% milk in PBS for 2 hours. The membrane was then washed×3 times (10 minutes each) and incubated for 1 hour with corresponding HRP-conjugated secondary antibody (Goat anti-Mouse IgG (H&L), F(ab′)2 Frag Cross-adsorbed HRP (HRP-GaM F(ab′)2), ThermoFisher, Cat. No. A24524) diluted 1:5000 in 1% BSA-PBS. The membrane was then washed×3 times and incubated with Pierce ECL Plus Western Blotting Substrate (ThermoFisher, Cat. No. #32132) for 10 min before developing on a LICOR Scanner.

[7] = test system: normal human peripheral blood mononuclear cells (PBMCs); assay: Cell-ELISA, intact normal cells; assay type: binding; settings: freshly isolated PBMCs; FIG. 6
Method: as §1

[8] = test system: CT-26 (subcutaneous tumors); assay: CT-26 syngeneic mouse model of colon cancer; assay type: in vivo, mouse (BALB/c); settings: day 24 post tumor inoculation; 10 mg/kg two times a week for 3 weeks; n=4; FIG. 32A
Method: Utilizing another syngeneic mouse model of colon cancer, CT-26 (Selby et al., 2016, PLoS One. 9; 11(9): e0161779), the anti-tumor efficacy of a chimeric version of monoclonal antibody NMC-303 was assessed. To create the chimeric version of monoclonal antibody NMC-303, isotype class-switching was performed on a mouse NMC-303 (having heavy variable regions of SEQ ID NO:40 and light chain variable regions of SEQ ID NO:41) to convert it from a mouse IgM to a chimeric IgG1. The mouse Heavy and Light chain variable regions (SEQ ID NO:40 and SEQ ID NO:41, respectively) were cloned into a human Ig gamma-1 chain and human Ig kappa chain as constant region. A total of eight (8) BALB/c mice were injected subcutaneously with CT-26 (800,000 cells/mouse). Mice were then divided into two groups (n=4) that received: A) control antibody (10 mg/kg) or B) the chimeric version of monoclonal antibody NMC-303 (10 mg/kg) two times a week for 3 weeks. […] Due to the human constant region of the chimeric version of the monoclonal antibody NMC-303, the anti-tumor efficacy of this antibody might be improved if tested in mouse models with human immune background. The above in vivo results further support the anti-tumor efficacy of antibodies raised against NMC-P3 immunogen that target the extracellularly accessible epitopes of the M(H)DM2/4 on cancer cells.

T1 sequence (Q00987 whole entry): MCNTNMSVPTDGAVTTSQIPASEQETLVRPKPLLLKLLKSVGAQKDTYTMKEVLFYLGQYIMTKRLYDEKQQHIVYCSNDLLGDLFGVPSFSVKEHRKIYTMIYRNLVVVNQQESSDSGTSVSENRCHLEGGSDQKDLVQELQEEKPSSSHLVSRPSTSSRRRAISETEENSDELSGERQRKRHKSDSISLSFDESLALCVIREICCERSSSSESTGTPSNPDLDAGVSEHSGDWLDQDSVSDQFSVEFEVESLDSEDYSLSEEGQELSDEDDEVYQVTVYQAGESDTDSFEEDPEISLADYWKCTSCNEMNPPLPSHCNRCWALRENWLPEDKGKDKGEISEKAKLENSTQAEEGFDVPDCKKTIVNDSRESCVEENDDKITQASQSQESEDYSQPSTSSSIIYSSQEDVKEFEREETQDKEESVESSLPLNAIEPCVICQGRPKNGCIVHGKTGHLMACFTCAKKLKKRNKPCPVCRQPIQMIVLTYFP

## Nc1ccn([C@@H]2O[C@H](CO)[C@@H](O)C2(F)F)c(=O)n1 [Gemcitabine]
[1]
  plasma membrane M(H)DM2/4 of treated cells: increase

## Cytochrome C [reference compound]
[2]; EDTA 10 mmols, pH 7.2, 5 min, 37° C., FIG. 10
  binding to intact, EDTA-released MiaPaCa-2 cells, cell-ELISA: only minimal binding
[3]
  Species Reactivity: H

## CC(=O)O[C@H]1C(=O)[C@@]2(C)[C@H]([C@H](OC(=O)c3ccccc3)[C@]3(O)C[C@H](OC(=O)[C@H](O)[C@@H](NC(=O)c4ccccc4)c4ccccc4)C(C)=C1C3(C)C)[C@]1(OC(C)=O)CO[C@@H]1C[C@@H]2O [Paclitaxel]
[1]
  plasma membrane M(H)DM2/4 of treated cells: increase

B1: NMC-303: mouse monoclonal antibody, IgM isotype, binds NMC-P3 (SEQ ID NO:3); VH SEQ ID NO:40, VL SEQ ID NO:41 (antibody, V domains shown)
VH: QVQLQQPGAELVKPGASVKLSCKASGYTFTSYYMYWVKQRPGQGLEWIGGINPRNGGTNFNEKFKNKATLTADKSSTTAYMQLSSLTSEDSAVYYCTRSGYYAMDYWGQGTSVTVSS
VL: DIQMTQTTSSLSASLGDRVTISCRASQDISNFLNWYQQKPDGTVKLLIYYTSRLHSGVPSRFSGSGSGTDYSLTISNLEQEDIATYFCQQGNTLPRTFGGGTKLEIK
modifications: mAb NMC-303 Heavy Chain Variable Region; mAb NMC-303 Light Chain Variable Region
[4]
  binding to NMC-P3 peptide (peptide-ELISA): bound
[2]; FIG. 8C
  binding to intact MIA PaCa-2 cells when competed with NMC-P3 peptide: competed
[2]; MIA PaCa-2, mAb 1 μg/mL, FIGS. 3-5
  relative binding (reactivity) to intact cells, cell-ELISA: reactivity
[5]
  relative binding (reactivity) to intact cells, cell-ELISA: reactivity
[6]
  reactivity with recombinant full-length HDM2-GST protein in immunoblot: reacted
[7]
  binding to intact normal human PBMCs, cell-ELISA: virtually no binding

B2: chimeric version of monoclonal antibody NMC-303: chimeric IgG1: mouse NMC-303 variable regions cloned into human Ig gamma-1 chain and human Ig kappa chain constant regions (antibody, V domains shown)
VH: B1 VH
VL: B1 VL
modifications: human IgG1 and kappa constant regions lack entries; mAb NMC-303 Heavy Chain Variable Region; mAb NMC-303 Light Chain Variable Region
notes: chimeric IgG1: mouse NMC-303 variable regions cloned into human Ig gamma-1 chain and human Ig kappa chain constant regions
[8]
  average tumor size: 726 mm^3
